B1: Guanyl-specific ribonuclease Sa, P05798 (parent)
chain: DVSGTVCLSALPPEATDTLNLIASDGPFPYSQDGVVFQNRESVLPTQSYGYYHEYTVITPGARTRGTRRIITGEATQEDYYTGDHYATFSLIDQTC

Variants of: B1
Conditions: Kitasatospora aureofaciens, 25 °C, Urea, CD, structure 1RGG, whole UniProt chain shown

Variant	ddG of mutation (higher = less stable) (pH 3, Glycine 30 mM) [kcal/mol]	denaturant m value (pH 3, Glycine 30 mM) [kcal/mol/M]	denaturant midpoint (higher = more stable) (pH 3, Glycine 30 mM) [M]	unfolding free energy (pH 3, Glycine 30 mM) [kcal/mol]	ddG of mutation (higher = less stable) (pH 7, MOPS 30 mM) [kcal/mol]	denaturant m value (pH 7, MOPS 30 mM) [kcal/mol/M]	denaturant midpoint (higher = more stable) (pH 7, MOPS 30 mM) [M]	unfolding free energy (pH 7, MOPS 30 mM) [kcal/mol]
DVSGTVCLSALPPEATDTLNLIASDGPFPYSQDGVVFQNEESVLPTQSYGYYHEYTVITPGAETAGTAAIITGEATQEDYYTGDHYATFSLIDQTC [R40E R63E R65A R68A R69A]	-2.7	1.17	4.5	5.3	2.5	0.85	4.6	3.9
DVSGTVCLSALPPEATDTLNLIASDGPFPYSQDGVVFQNEESVLPTQSYGYYHEYTVITPGAETRGTRRIITGEATQEDYYTGDHYATFSLIDQTC [R40E R63E]	-1.1	1.66	2.2	3.7				
KVSGTVCLSALPPEATKTLNLIASKGPFPYKQDGVVFQNRKSVLPTQSYGYYHEYTVITPGARTRGTRRIITGKATQEKYYTGDHYATFSLIDQTC [D1K D17K E41K D25K E74K D79K S31K]	0	2.37	1.1	2.6	-0.2	1.15	5.7	6.6
KVSGTVCLSALPPEATKTLNLIASDGPFPYSQDGVVFQNRKSVLPTQSYGYYHEYTVITPGARTRGTRRIITGEATQEDYYTGDHYATFSLIDQTC [D1K D17K E41K]	-0.7	1.95	1.7	3.3	2.7	0.93	4	3.7
DVSGTVCLSALPPEATDTLNLIASDGPFPYSQDGVVFQNEESVLPTQSYGYYHEYTVITPGARTRGTRRIITGEATQEDYYTGDHYATFSLIDQTC [R40E]	-0.3	1.52	1.9	2.9				
KVSGTVCLSALPPEATKTLNLIASKGPFPYSQDGVVFQNRKSVLPTQSYGYYHEYTVITPGARTRGTRRIITGKATQEDYYTGDHYATFSLIDQTC [D1K D17K E41K D25K E74K]	-0.9	1.92	1.8	3.5	0.7	1.07	5.3	5.7
KVSGTVCLSALPPEATKTLNLIASKGPFPYSQDGVVFQNRKSVLPTQSYGYYHEYTVITPGARTRGTRRIITGKATQEKYYTGDHYATFSLIDQTC [D1K D17K E41K D25K E74K D79K]	-0.2	2.25	1.2	2.7	-0.7	1.03	6.9	7.1

— FireProtDB (doi:10.1002/pro.370)
